In PMC12416549 (2024):

T1: TNFR1 (Homo sapiens, UniProt P19438)
T1 chain: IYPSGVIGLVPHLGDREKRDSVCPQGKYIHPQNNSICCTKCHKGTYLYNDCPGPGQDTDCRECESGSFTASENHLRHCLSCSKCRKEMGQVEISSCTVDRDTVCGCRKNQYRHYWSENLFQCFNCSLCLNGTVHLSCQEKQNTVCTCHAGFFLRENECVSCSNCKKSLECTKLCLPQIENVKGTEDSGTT


Molecular target: T1, TNFR1
Test: yeast display SC50

apparent Kd (screen) [nM] | Binder
0.956 | E7D (designed binder) SMEEEVDKAAKEYEKKKKEAIEKHLEKLKAKDKEAAERFLKELEEAAKEYAKDEAKTMSEEEAKRRAKKYKEKVLLSELSEEEQKEIKEAEEKLVRTILKYVEEAAK
0.49 | A51R (designed binder) SMEEEVEKAAKEYEKKKKEAIEKHLEKLKAKDKEAAERFLKELEEAAKEYRKDEAKTMSEEEAKRRAKKYKEKVLLSELSEEEQKEIKEAEEKLVRTILKYVEEAAK
2.25 | T97S (designed binder) SMEEEVEKAAKEYEKKKKEAIEKHLEKLKAKDKEAAERFLKELEEAAKEYAKDEAKTMSEEEAKRRAKKYKEKVLLSELSEEEQKEIKEAEEKLVRSILKYVEEAAK
3 | K31P (designed binder) SMEEEVEKAAKEYEKKKKEAIEKHLEKLKAPDKEAAERFLKELEEAAKEYAKDEAKTMSEEEAKRRAKKYKEKVLLSELSEEEQKEIKEAEEKLVRTILKYVEEAAK
1.4 | V102E (designed binder) SMEEEVEKAAKEYEKKKKEAIEKHLEKLKAKDKEAAERFLKELEEAAKEYAKDEAKTMSEEEAKRRAKKYKEKVLLSELSEEEQKEIKEAEEKLVRTILKYEEEAAK
0.446 | Y101N (designed binder) SMEEEVEKAAKEYEKKKKEAIEKHLEKLKAKDKEAAERFLKELEEAAKEYAKDEAKTMSEEEAKRRAKKYKEKVLLSELSEEEQKEIKEAEEKLVRTILKNVEEAAK
22.2 | Q84P (designed binder) SMEEEVEKAAKEYEKKKKEAIEKHLEKLKAKDKEAAERFLKELEEAAKEYAKDEAKTMSEEEAKRRAKKYKEKVLLSELSEEEPKEIKEAEEKLVRTILKYVEEAAK
0.446 | E103K (designed binder) SMEEEVEKAAKEYEKKKKEAIEKHLEKLKAKDKEAAERFLKELEEAAKEYAKDEAKTMSEEEAKRRAKKYKEKVLLSELSEEEQKEIKEAEEKLVRTILKYVKEAAK
0.869 | L43V (designed binder) SMEEEVEKAAKEYEKKKKEAIEKHLEKLKAKDKEAAERFLKEVEEAAKEYAKDEAKTMSEEEAKRRAKKYKEKVLLSELSEEEQKEIKEAEEKLVRTILKYVEEAAK
0.49 | L40R (designed binder) SMEEEVEKAAKEYEKKKKEAIEKHLEKLKAKDKEAAERFRKELEEAAKEYAKDEAKTMSEEEAKRRAKKYKEKVLLSELSEEEQKEIKEAEEKLVRTILKYVEEAAK
12.5 | Y13D (designed binder) SMEEEVEKAAKEDEKKKKEAIEKHLEKLKAKDKEAAERFLKELEEAAKEYAKDEAKTMSEEEAKRRAKKYKEKVLLSELSEEEQKEIKEAEEKLVRTILKYVEEAAK
0.869 | H24W (designed binder) SMEEEVEKAAKEYEKKKKEAIEKWLEKLKAKDKEAAERFLKELEEAAKEYAKDEAKTMSEEEAKRRAKKYKEKVLLSELSEEEQKEIKEAEEKLVRTILKYVEEAAK
0.869 | R38M (designed binder) SMEEEVEKAAKEYEKKKKEAIEKHLEKLKAKDKEAAEMFLKELEEAAKEYAKDEAKTMSEEEAKRRAKKYKEKVLLSELSEEEQKEIKEAEEKLVRTILKYVEEAAK
0.539 | E5N (designed binder) SMEENVEKAAKEYEKKKKEAIEKHLEKLKAKDKEAAERFLKELEEAAKEYAKDEAKTMSEEEAKRRAKKYKEKVLLSELSEEEQKEIKEAEEKLVRTILKYVEEAAK
